Laboratory results published in patent US20140057857A1.

Tests used:
[1] = biological target: GST-Mcl-1; test: fluorescence polarization assay, labeled peptide on GST-Mcl-1
[2] = biological target: GST-Bcl-xL; test: fluorescence polarization assay, labeled peptide on GST-Bcl-xL
[3] = biological target: GST-Mcl-1; test: competitive FP assay on Mcl-1

Kd [1]	Kd [2]	IC50 [3]	Substance
127 nM	14 nM		Bak (fluorescein-labeled Bak peptide)
		160 nM	Ubiquitin-Noxa fusion protein
2.5 nM	1.4 nM		Bim (fluorescein-labeled Bim peptide)
